According to patent US20150111231A1:

How the values were obtained:
[1] = target: human sAPPβ (MESO SCALE DISCOVERY) (human) (UniProt P05067); test: SPR (ProteOn, GLM chip), 5H10 immobilised, sAPPβ as analyte
[2] = target: human sAPPβ (MESO SCALE DISCOVERY) (human) (UniProt P05067); test: SPR (ProteOn), 5H10 immobilized on GLM chip, sAPPβ as analyte at 1000, 250, 62.5, 15.6, 3.91 nM

human sAPPβ (MESO SCALE DISCOVERY) (human), sequence (P05067 18-671): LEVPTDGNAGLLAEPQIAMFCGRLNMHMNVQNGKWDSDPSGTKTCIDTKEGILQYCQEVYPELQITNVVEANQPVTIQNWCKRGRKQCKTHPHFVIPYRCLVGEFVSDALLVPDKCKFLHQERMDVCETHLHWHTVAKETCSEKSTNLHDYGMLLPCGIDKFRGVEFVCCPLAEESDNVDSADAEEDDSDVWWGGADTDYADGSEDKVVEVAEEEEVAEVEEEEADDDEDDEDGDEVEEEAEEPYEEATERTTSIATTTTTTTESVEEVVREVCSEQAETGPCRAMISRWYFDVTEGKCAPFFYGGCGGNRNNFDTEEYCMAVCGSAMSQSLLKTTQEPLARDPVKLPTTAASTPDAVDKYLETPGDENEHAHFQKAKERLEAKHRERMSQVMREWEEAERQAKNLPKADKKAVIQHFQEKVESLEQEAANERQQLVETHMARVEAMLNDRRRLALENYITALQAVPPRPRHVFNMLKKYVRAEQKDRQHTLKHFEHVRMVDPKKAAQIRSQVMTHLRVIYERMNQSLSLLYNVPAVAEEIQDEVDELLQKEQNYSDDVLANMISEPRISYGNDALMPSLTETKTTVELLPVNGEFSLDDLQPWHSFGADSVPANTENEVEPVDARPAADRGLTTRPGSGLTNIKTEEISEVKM

- koff [1]: 5.62e-05 s⁻¹
- kon [1]: 90800 M⁻¹ s⁻¹
- Kd [2]: 0.62 nM
B1: anti-internal structure antibody 5H10 (antibody, IgG1, V domains shown)
VH: QVQLQQSGTELAKPGASVKMSCKASGYTFIDYWMHWIKQSPGQGLEWIGFINPRSGSTTYNQKFRDKATLTVDTSSSTAYMQLTSLTSEDSAVYYCTRPDFDYFDYWGQGTTLTVSS
VL: DVLMTQTPLSLPVSLGDHASISCRSSQSIVQSNGNTYLEWYLQKPGQSPKLLIYKVSNRFSGVPDRFSGSGSGTDFTLKISSVEAEDLGIYYCFQASHVPLTFGAGTKLELKR
